According to patent CN115558029A:
Where two headings read alike, the source gives them in different places.

Key:
[1] = target: PD-1 on Jurkat/PD-1细胞(Promega) (UniProt Q15116); experiment: cell-based or functional assay
[2] = target: 人PD-1蛋白(北京百普赛斯，货号PD1-H5221) (human) (UniProt Q15116); experiment: binding ELISA on coated PD-1 protein
[3] = target: PD-1 on Jurkat/PD-1细胞(Promega) (UniProt Q15116); experiment: cell-based or functional assay; remark: listed apart in the source
[4] = target: PD-1 on Jurkat/PD-1细胞(Promega) (UniProt Q15116); experiment: cell-based or functional assay; remark: listed apart in the source
[5] = target: 人PD-1蛋白(北京百普赛斯，货号PD1-H5221) (human) (UniProt Q15116); experiment: binding ELISA, human PD-1 protein coated at 1 μg/mL, anti-human IgG (Fc)-HRP
[6] = target: 人PD-1蛋白(北京百普赛斯，货号PD1-H5221) (human) (UniProt Q15116); experiment: binding ELISA on coated PD-1 protein; remark: listed apart in the source
[7] = target: 人PD-1蛋白(北京百普赛斯，货号PD1-H5221) (human) (UniProt Q15116); experiment: binding ELISA on coated PD-1 protein; remark: listed apart in the source
[8] = target: 人PD-1蛋白(北京百普赛斯，货号PD1-H5221) (human) (UniProt Q15116); experiment: binding ELISA on coated PD-1 protein; remark: listed apart in the source

EC50, PD-1报告基因法 [1]: 0.4 µg/mL
EC50 [2]: 0.0164 µg/mL
EC50, PD-1报告基因法 [3]: 0.2 µg/mL
EC50, 报告基因法 (CHO/PD-L1 + Jurkat/PD-1, One-Glo luminescence) [3]: 0.2 to 0.5 µg/mL
EC50, PD-1报告基因法 [4]: 0.5 µg/mL
EC50 [5]: 0.0202 µg/mL
EC50 [6]: 0.0122 µg/mL
EC50 [7]: 0.0073 µg/mL
EC50 [8]: 0.0053 µg/mL
B1: PD-1VHH抗体克隆huVHH3-3 (VHH, part only; not given: format as tested, part only)
VHH, part: EVQLVESGGGLVQPGGSLRLSCAASGRTSSMYAMGWFRQAPGNEREFVAGIGWENNTPYYARSVEGRFTISRDNVKNTVFLQMNRLRAEDTAVYYCAAQIGISGTLGDYWGQGTQVTVSS
